From article PMC3795524

Key:
[1] = target: KNH1144 SOSIP.IEGR G-MPER gp140 (uncleaved) (HIV-1 KNH1144 (subtype A)); experiment: AUC
[2] = target: KNH1144 SOSIP.IEGR G-MPER gp140 (uncleaved) (HIV-1 KNH1144 (subtype A)); experiment: native gel or EMSA
[3] = target: KNH1144 SOSIP.R6 G-MPER gp140 (cleaved) (HIV-1 KNH1144 (subtype A)); experiment: AUC
[4] = target: KNH1144 SOSIP.R6 G-MPER gp140 (cleaved) (HIV-1 KNH1144 (subtype A)); experiment: native gel or EMSA

KNH1144 SOSIP.IEGR G-MPER gp140 (uncleaved) (domain or fragment)
stoichiometry N [1]: 3 | stoichiometry N [2]: 3

KNH1144 SOSIP.R6 G-MPER gp140 (cleaved) (complex)
stoichiometry N [3]: 3 | stoichiometry N [4]: 3
